This note sets out measurements from publication PMC6279779.

In assay [1] the target is soluble domain of Arabidopsis thaliana cytochrome c1 (Arabidopsis thaliana).
Assay [2] has the same target. The source holds these as a separate data set.

In assay [1], “Homo sapiens E104C cytochrome c mutant (from UniProt P99999 1-105) (natural protein)” had a distance decay factor (β) of the pCc1–hCc current after addition of wild-type hCc (12.5 μM, without C-terminal cysteine) to the medium, as an inhibition experiment of 3 nm^−1. The average distance decay factor (β) of the pCc1–hCc current against the electrochemical gate potential at 200 mV constant bias; minimum at −0.25 V EC gate potential in assay [2] was determined as 0.5 nm^−1.
